The values that follow come from patent US20200291118A1.

For the assay, the target named is hPD-1-hIgGFc antigen (human), Q15116. The assay can be described thus: ELISA on coated hPD-1-hIgGFc, ligand PD-L2-his tag 0.3 µg/ml detected; no antibody (row 'blank' under HX009-5). Background: In an ELISA, binding on a coated surface is turned into a signal by an enzyme label.

Where two headings read alike, the source gives them in different places.

Sequence of hPD-1-hIgGFc antigen (human), Q15116 (Q15116 25-167 limits assumed): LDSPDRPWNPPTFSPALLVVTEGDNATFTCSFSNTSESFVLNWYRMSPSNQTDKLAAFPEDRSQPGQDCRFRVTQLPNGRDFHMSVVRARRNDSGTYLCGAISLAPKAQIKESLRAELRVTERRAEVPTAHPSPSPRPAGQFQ

B1: PD-L2-his tag, Q9BQ51 20-220 (ligand, UniProt Q9BQ51 20-220, looked up, not shown: small tags and cut ends)
chain: LFTVTVPKELYIIEHGSNVTLECNFDTGSHVNLGAITASLQKVENDTSPHRERATLLEEQLPLGKASFHIPQVQVRDEGQYQCIIIYGVAWDYKYLTLKVKASYRKINTHILKVPETDEVELTCQATGYPLAEVSWPNVSVPANTSHSRTPEGLYQVTSVLRLKPPPGRNFSCVFWNTHVRELTLASIDLQSQMEPRTHPT
As to B1, the absorbance at 450 nm was found to be 1.1. Moreover, where the note is “remark: other sources report otherwise”, the absorbance at 450 nm is 1.09.
